Measured values published in IntAct's records for PubMed 35512704.

B1: Speckle-type POZ protein (Homo sapiens), O43791 (parent)
chain: MSRVPSPPPPAEMSSGPVAESWCYTQIKVVKFSYMWTINNFSFCREEMGEVIKSSTFSSGANDKLKWCLRVNPKGLDEESKDYLSLYLLLVSCPKSEVRAKFKFSILNAKGEETKAMESQRAYRFVQGKDWGFKKFIRRDFLLDEANGLLPDDKLTLFCEVSVVQDSVNISGQNTMNMVKVPECRLADELGGLWENSRFTDCCLCVAGQEFQAHKAILAARSPVFSAMFEHEMEESKKNRVEINDVEPEVFKEMMCFIYTGKAPNLDKMADDLLAAADKYALERLKVMCEDALCSNLSVENAAEILILADLHSADQLKTQAVDFINYHASDVLETSGWKSMVVSHPHLVAEAYRSLASAQCPFLGPPRKRLKQS
partner: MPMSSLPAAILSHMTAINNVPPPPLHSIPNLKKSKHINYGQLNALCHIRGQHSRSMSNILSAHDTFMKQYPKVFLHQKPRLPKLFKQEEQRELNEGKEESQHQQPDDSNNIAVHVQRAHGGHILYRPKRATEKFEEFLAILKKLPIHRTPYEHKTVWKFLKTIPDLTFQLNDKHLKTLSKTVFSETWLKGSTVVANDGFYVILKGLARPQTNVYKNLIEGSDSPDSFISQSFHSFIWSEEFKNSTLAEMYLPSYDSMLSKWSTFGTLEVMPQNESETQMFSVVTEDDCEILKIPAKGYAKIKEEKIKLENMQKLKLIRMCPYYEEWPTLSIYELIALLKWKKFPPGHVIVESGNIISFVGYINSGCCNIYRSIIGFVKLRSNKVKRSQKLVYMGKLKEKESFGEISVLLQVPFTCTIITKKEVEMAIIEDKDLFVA
B2: Speckle-type POZ protein (Homo sapiens), O43791 (parent)
chain: B1 chain
partner: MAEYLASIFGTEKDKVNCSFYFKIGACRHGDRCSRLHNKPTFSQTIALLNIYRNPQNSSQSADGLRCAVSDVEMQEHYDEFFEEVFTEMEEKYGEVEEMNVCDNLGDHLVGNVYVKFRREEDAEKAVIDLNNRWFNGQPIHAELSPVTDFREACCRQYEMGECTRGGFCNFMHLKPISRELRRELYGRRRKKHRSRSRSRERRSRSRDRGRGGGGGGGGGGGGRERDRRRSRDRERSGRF
B3: Speckle-type POZ protein (Homo sapiens), O43791 (parent)
chain: B1 chain
partner: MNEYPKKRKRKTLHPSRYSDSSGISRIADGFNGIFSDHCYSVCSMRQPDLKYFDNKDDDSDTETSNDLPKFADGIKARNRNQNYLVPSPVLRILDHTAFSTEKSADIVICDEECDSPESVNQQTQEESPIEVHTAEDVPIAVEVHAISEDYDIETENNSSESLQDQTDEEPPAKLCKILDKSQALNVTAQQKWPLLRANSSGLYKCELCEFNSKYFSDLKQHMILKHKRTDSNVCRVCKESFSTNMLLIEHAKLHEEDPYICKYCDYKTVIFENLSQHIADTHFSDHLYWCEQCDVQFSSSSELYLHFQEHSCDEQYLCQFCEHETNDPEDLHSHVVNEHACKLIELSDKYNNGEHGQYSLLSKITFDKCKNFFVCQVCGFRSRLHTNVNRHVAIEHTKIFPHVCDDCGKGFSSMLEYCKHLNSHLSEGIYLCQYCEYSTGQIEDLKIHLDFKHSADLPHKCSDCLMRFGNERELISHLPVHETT

Variants of: B1
Details: with cnbd1_human CNBD1, Q8NA66

Row | effect of a mutation on the interaction | Variant
1 | with no effect | MSRVPSPPPPAEMSSGPVAESWCYTQIKVVKFSYMWTINNFSFCREEMGEVIKSSTFSSGANDKLKWCLRVNPKGLDEESKDYLSLYLLLVSCPKSEVRAKFKFSILNAKGEETKAMESQRAYRFVQGKDWGLKKFIRRDFLLDEANGLLPDDKLTLFCEVSVVQDSVNISGQNTMNMVKVPECRLADELGGLWENSRFTDCCLCVAGQEFQAHKAILAARSPVFSAMFEHEMEESKKNRVEINDVEPEVFKEMMCFIYTGKAPNLDKMADDLLAAADKYALERLKVMCEDALCSNLSVENAAEILILADLHSADQLKTQAVDFINYHASDVLETSGWKSMVVSHPHLVAEAYRSLASAQCPFLGPPRKRLKQS [F133L]

Variants of: B2
Details: with U2AF1, Q01081

Row | effect of a mutation on the interaction | Variant
2 | with no effect | MSRVPSPPPPAEMSSGPVAESWCYTQIKVVKFSYMWTINNFSFCREEMGEVIKSSTFSSGANDKLKWCLRVNPKGLDEESKDYLSLCLLLVSCPKSEVRAKFKFSILNAKGEETKAMESQRAYRFVQGKDWGFKKFIRRDFLLDEANGLLPDDKLTLFCEVSVVQDSVNISGQNTMNMVKVPECRLADELGGLWENSRFTDCCLCVAGQEFQAHKAILAARSPVFSAMFEHEMEESKKNRVEINDVEPEVFKEMMCFIYTGKAPNLDKMADDLLAAADKYALERLKVMCEDALCSNLSVENAAEILILADLHSADQLKTQAVDFINYHASDVLETSGWKSMVVSHPHLVAEAYRSLASAQCPFLGPPRKRLKQS [Y87C]

Variants of: B2
Details: with U2AF1, Q01081
Remark: another data set of the same source

Row | effect of a mutation on the interaction | Variant
3 | with no effect | MSRVPSPPPPAEMSSGPVAESWCYTQIKVVKFSYMWTINNFSFCREEMGEVIKSSTFSSGANDKLKWCLRVNPKGLDEESKDYLSLYLLLVSCPKSEVRAKCKFSILNAKGEETKAMESQRAYRFVQGKDWGFKKFIRRDFLLDEANGLLPDDKLTLFCEVSVVQDSVNISGQNTMNMVKVPECRLADELGGLWENSRFTDCCLCVAGQEFQAHKAILAARSPVFSAMFEHEMEESKKNRVEINDVEPEVFKEMMCFIYTGKAPNLDKMADDLLAAADKYALERLKVMCEDALCSNLSVENAAEILILADLHSADQLKTQAVDFINYHASDVLETSGWKSMVVSHPHLVAEAYRSLASAQCPFLGPPRKRLKQS [F102C]

Variants of: B2
Details: with U2AF1, Q01081
Remark: another data set of the same source

Row | effect of a mutation on the interaction | Variant
4 | with no effect | MSRVPSPPPPAEMSSGPVAESWCYTQIKVVKFSYMWTINNFSFCREEMGEVIKSSTFSSGANDKLKWCLRVNPKGLDEESKDYLSLYLLLVSCPKSEVRAKFKFSILNAKGEETKAMESQRAYRFVQGKDWGVKKFIRRDFLLDEANGLLPDDKLTLFCEVSVVQDSVNISGQNTMNMVKVPECRLADELGGLWENSRFTDCCLCVAGQEFQAHKAILAARSPVFSAMFEHEMEESKKNRVEINDVEPEVFKEMMCFIYTGKAPNLDKMADDLLAAADKYALERLKVMCEDALCSNLSVENAAEILILADLHSADQLKTQAVDFINYHASDVLETSGWKSMVVSHPHLVAEAYRSLASAQCPFLGPPRKRLKQS [F133V]

Variants of: B2
Details: with U2AF1, Q01081
Remark: another data set of the same source

Row | effect of a mutation on the interaction | Variant
5 | with no effect | MSRVPSPPPPAEMSSGPVAESWCYTQIKVVKFSYMWTINNFSFCREEMGEVIKSSTFSSGANDKLKWCLRVNPKGLDEESKDYLSLYLLLVSCPKSEVRAKFKFSILNAKGEETKAMESQRAYRFVQGKDWGLKKFIRRDFLLDEANGLLPDDKLTLFCEVSVVQDSVNISGQNTMNMVKVPECRLADELGGLWENSRFTDCCLCVAGQEFQAHKAILAARSPVFSAMFEHEMEESKKNRVEINDVEPEVFKEMMCFIYTGKAPNLDKMADDLLAAADKYALERLKVMCEDALCSNLSVENAAEILILADLHSADQLKTQAVDFINYHASDVLETSGWKSMVVSHPHLVAEAYRSLASAQCPFLGPPRKRLKQS [F133L]

Variants of: B3
Details: with zn639_human ZNF639, Q9UID6

Row | effect of a mutation on the interaction | Variant
6 | with no effect | MSRVPSPPPPAEMSSGPVAESWCYTQIKVVKFSYMWTINNFSFCREEMGEVIKSSTFSSGANDKLKWCLRVNPKGLDEESKDYLSLYLLLVSCPKSEVRAKFKFSILNAKGEETKAMESQRAYRFVQGKDWGVKKFIRRDFLLDEANGLLPDDKLTLFCEVSVVQDSVNISGQNTMNMVKVPECRLADELGGLWENSRFTDCCLCVAGQEFQAHKAILAARSPVFSAMFEHEMEESKKNRVEINDVEPEVFKEMMCFIYTGKAPNLDKMADDLLAAADKYALERLKVMCEDALCSNLSVENAAEILILADLHSADQLKTQAVDFINYHASDVLETSGWKSMVVSHPHLVAEAYRSLASAQCPFLGPPRKRLKQS [F133V]

Variants of: B3
Details: with zn639_human ZNF639, Q9UID6
Remark: another data set of the same source

Row | effect of a mutation on the interaction | Variant
7 | with no effect | MSRVPSPPPPAEMSSGPVAESWCYTQIKVVKFSYMWTINNFSFCREEMGEVIKSSTFSSGANDKLKWCLRVNPKGLDEESKDYLSLYLLLVSCPKSEVRAKFKFSILNAKGEETKAMESQRAYRFVQGKDWGLKKFIRRDFLLDEANGLLPDDKLTLFCEVSVVQDSVNISGQNTMNMVKVPECRLADELGGLWENSRFTDCCLCVAGQEFQAHKAILAARSPVFSAMFEHEMEESKKNRVEINDVEPEVFKEMMCFIYTGKAPNLDKMADDLLAAADKYALERLKVMCEDALCSNLSVENAAEILILADLHSADQLKTQAVDFINYHASDVLETSGWKSMVVSHPHLVAEAYRSLASAQCPFLGPPRKRLKQS [F133L]

Variants of: B3
Details: with zn639_human ZNF639, Q9UID6
Remark: another data set of the same source

Row | effect of a mutation on the interaction | Variant
8 | with no effect | MSRVPSPPPPAEMSSGPVAESWCYTQIKVVKFSYMWTINNFSFCREEMGEVIKSSTFSSGANDKLKWCLRVNPKGLDEESKDYLSLYLLLVSCPKSEVRAKCKFSILNAKGEETKAMESQRAYRFVQGKDWGFKKFIRRDFLLDEANGLLPDDKLTLFCEVSVVQDSVNISGQNTMNMVKVPECRLADELGGLWENSRFTDCCLCVAGQEFQAHKAILAARSPVFSAMFEHEMEESKKNRVEINDVEPEVFKEMMCFIYTGKAPNLDKMADDLLAAADKYALERLKVMCEDALCSNLSVENAAEILILADLHSADQLKTQAVDFINYHASDVLETSGWKSMVVSHPHLVAEAYRSLASAQCPFLGPPRKRLKQS [F102C]
